Source: patent US20080045469A1 (published 2008)
One block for each binder: values may come before it.

How the values were obtained:
[1] = target: T1, human VEGF165 expressed in transduced LLC cells (human), P15692; test: sandwich ELISA of conditioned medium of hVEGF-LLC cells, homodimer format; conditions: remark: other sources report otherwise
T1 chain: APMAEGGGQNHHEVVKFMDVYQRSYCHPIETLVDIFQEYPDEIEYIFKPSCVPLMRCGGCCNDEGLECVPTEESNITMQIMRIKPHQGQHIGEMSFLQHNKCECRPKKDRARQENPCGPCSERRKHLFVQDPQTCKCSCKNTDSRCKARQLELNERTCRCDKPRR

[2] = target: recombinant human VEGF165 monomer (E. coli) (human, UniProt P15692-4 27-191); test: in vitro reduction and refolding of E. coli proteins
Experimental: Recombinant human PLGF-1 (SEQ ID NO: 1) and VEGF₁ monomers were expressed in E. Coli as previously described⁴⁴. An equimolar of mixture of PLGF-1- and VEGF₁ homodimers, at a total protein concentration of 0.5 mg/ml, was incubated in reducing buffer (20 mM Tris-HC1, pH 8.0, 6 M guanidine-HC1, and 10 mM DTT) at 4° C. over night. The following day the protein solution was dialyzed against 10 volumes of refolding buffer (2 M urea, 20 mM Tris-HC1, pH 8.0, 2 mM GSH (glutathione-SH) and 0.5 mM GSSG (glutathione-S-S-glutathione)). Using this refolding protocol, a mixture of homodimeric PLGF-1 and VEGF₁ as well as heterodimeric PLGF-1/VEGF was generated.

[3] = target: the molecule itself; test: sandwich ELISA of cell lysates and conditioned media of hPLGF-1-KDEL-LLC cells
Description: To quantify the amounts of intracellular and extracellular dimeric molecules, a sensitive sandwich ELISA assay was used to analyze cell lysates and conditioned media from transduced and non-transduced LLC cell lines. Specific antibodies were used against each factor, either two antibodies against the same factor but raised in different species (homodimers) or two antibodies against different factors (heterodimers). As expected, a high level of mVEGF homodimers was detected in conditioned media from controls, wt LLC and vector-transduced LLC cells (Table 1).

homodimer concentration in conditioned medium [1]: 41900 pg/mL
B1: human VEGF165 expressed in transduced LLC cells, P15692 27-191 (ligand, UniProt P15692-4 27-191, looked up)
chain: T1 chain

binding result [2]: binds
B2: recombinant human PLGF-1 monomer (E. coli) (ligand)
chain: LPAVPPQQWALSAGNGSSEVEVVPFQEVWGRSYCRALERLVDVVSEYPSEVEHMFSPSCVSLLRCTGCCGDENLHCVPVETANVTMQLLKIRSGDRPSYVELTFSQHVRCECRPLREKMKPERCGDAVPRR

B3: human PLGF-1 with C-terminal KDEL ER-retention signal (ligand)
chain: LPAVPPQQWALSAGNGSSEVEVVPFQEVWGRSYCRALERLVDVVSEYPSEVEHMFSPSCVSLLRCTGCCGDENLHCVPVETANVTMQLLKIRSGDRPSYVELTFSQHVRCECRPLREKMKPERCGDAVPRRKDEL
notes: Expressed in transduced LLC cells; also called hPLGF-1-KDEL; PLGF-1-KDEL
binding result [3]: binds
